Consider two molecules from US20160340659A1, “ACTIN BINDING PEPTIDES AND COMPOSITIONS COMPRISING SAME FOR INHIBITING ANGIOGENESIS AND TREATING MEDICAL CONDITIONS ASSOCIATED WITH SAME” (YISSUM RESEARCH AND DEVELOPMENT COMPANY OF THE HEBREW …, priority 2014, published 2016).

Assay [1] concerns the target T1, G-Actin from rabbit muscle (Oryctolagus cuniculus, UniProt P68135).
T1 construct: G-Actin from rabbit muscle; purchased Sigma-Aldrich, St Louis, Mo; host or cells: rabbit muscle (tissue-derived)
Put plainly: ELISA actin binding assay (solid-phase, immobilized actin). The following applies: immobilized G-actin 500 ng/well. How it is done: Peptides corresponding to a variety of amino acid sequences in the region of human RNASET2 comprising helix 5 and helix 6 were synthesized and assayed for actin binding in an ELISA actin binding assay.
Solid-phase ELISA for RNASET2 peptide binding to immobilized actin was performed as modified from Mejean 1987 (Biochem. J. 244: 571-577) and Mejean 1992 (Eur. J Biochem. 209: 555-562). All steps were conducted at 37° C. Immuno-96 Microwell™ solid plates (Thermo Fisher Scientific, MA) coated with 500 ng/well of G-Actin from rabbit muscle (Sigma-Aldrich, St Louis, Mo.) in 100 ul of 0.05 M carbonate buffer, pH 9.5 (Sigma-Aldrich, Mo), incubated for 1 h and washed with 250 ul/well Tris Buffered Saline (TBS) (Sigma-Aldrich). The wells were blocked with 3% bovine serum albumin (BSA, Sigma-Aldrich) in 200 ul/well TBS for another 1 hour and washed with 250 ul/well TBS. […] After an additional wash with 250 ul/well TBS, 1-Step Ultra TMB-ELISA (TMB-3,3′,5,5′ Tetramethylbenzidine) (Thermo-Scientific) was added (100 ul/well) and after 15-25 min of incubation, the reaction was read at A650 using Infinite F50-TECAN ELISA READER (TECAN, Austria). […]

Assay [2] has as its system chick Chorio-Allantoic Membrane (CAM). Description: Ex ovo CAM angiogenesis assay. The following applies: 3 μg on paper disk daily for four days from day 8; compared to PBS control. The class given is in vivo, chicken. How it is done: In this assay, in-vivo angiogenesis is assessed on live chick embryos grown in petri dishes. Fertilized eggs are cracked into a petri dish after a few (e.g. 3) days incubation at appropriate temperature (e.g. 37° C.) and humidity. In the following days, the embryos developed a vascular network, which can then easily be exposed to any treatment or combination of treatments, for example, via delivery onto absorbent disks placed on/about the developing vascular regions. Angiogenesis is scored by periodically (e.g. 1×/day, 2×/day, 1×/2 days, 1×/4 days, etc) counting the number of blood vessels around the disk.
Fertilized chicken eggs were incubated horizontally at 37° C. and humidity of 60-62% and cracked into Petri dishes at embryonic day 4. Incubation was continued under the same conditions. […] Treatment was given every day for four days, then, the number of blood vessels around the treated disks was counted.

Assay [3] addresses T2, actin (Oryctolagus cuniculus, UniProt P68135). Description: Surface plasmon resonance (BIAcore) of actin binding. The following applies: actin on CM5 chip, 25° C. How it is done:
SPR was performed on a BIAcore 3000 instrument (BIAcore, Uppsala, Sweden). Actin was diluted in 100 mM CH3COONa pH 4.6 to a final concentration of 20 μg/ml (200 μl total) resulting in ˜1 ng immobilized actin on a CM5 BIAcore sensor chip (GE Healthcare Bio-Sciences AB) using the standard BIAcore amine coupling chemistry protocol. The CM5 chip allows four separate flow cells to be operated in the BIAcore 3000 instrument used in these experiments. Coupling is achieved by activating the surface of the sensor chips with equal volumes of 50 mM N-hydroxysuccimide (NHS)/200 mM Nethyl-N-(3-[…])-carboiimide (EDC) (BIAcore, AB, Uppsala, Sweden) to form activated carboxyl groups. An actin solution (15 μg/ml) was run over the chip for 5 min at a rate of 10 μl/min, allowing the amine groups on the protein to react with the activated esters. In the final stage of immobilization, the surface was blocked by 1M ethanol amine, pH 8.0. […] The association phase for protein or peptides binding to actin was followed for 4 min, and dissociation phases were monitored for 3 min. […] The response was monitored as a function of time (sensorgram) at 25° C. […]

For assay [4], the target named is T2, actin. Description: Actin binding solid phase assay. The following applies: immobilized actin; 0-500 ng/100 μl well. Here is the method: 96-well plates (MaxiSorp® flat-bottom 96-well plate, Fisher Scientific Inc., Fair Lawn, N.J.) were coated with 500 ng actin in 100 μl carbonate-bicarbonate buffer (pH 9.5) for 1 h at 37° C. The plate was washed once with TBS and then blocked with 3% BSA in 200 μl TBS buffer at 37° C., for 1 h. Wells were then washed once with 250 μl TBS. trT2-49, trT2-49m or each of the 29 peptides were added at 1:2 dilutions in 100 μl TBS, starting from 500 ng/well, incubated for 1 h at 37° C. and then washed three times with TBS containing 0.1% Tween-20 (TBST). Each well was then treated with 100 μl rabbit anti-trT2-49 diluted 1:500 in TBS and incubated for 1 h at 37° C. The wells were washed three times with TBST and then incubated with 100 μl goat anti-rabbit IgG-HRP (Jackson ImmunoResearch, West Grove, Pa.) diluted 1:10,000 in TBS, for 1 h at 37° C. Wells were then washed twice with TBST, and once with TBS before 100 μl substrate (1-step Ultra TMB-ELISA, Pierce, Fisher Scientific Inc.) were added. Absorbance at 655 nm was measured 10 min thereafter using a Power Wave 200 Microplate Scanning Spectrophotometer (Bio-Tek Instrument, Winooski, Vt.). Affinity was evaluated by double reciprocal plotting.

The test system of the next assay is HUVEC. Description: HUVEC tube formation assay on Matrigel. It is filed as cell-based, human. The following applies: peptides at 2 μM, compared to Control. Here is the method:
FIGS. 6A-6D illustrate in-vitro inhibition of angiogenesis in the HUVEC model by T2 peptides. HUVEC cells plated on Matrigel™ were exposed to 2 μM of T2 peptides A103-Q159 (SEQ ID NO: 60), K108-K133 (SEQ ID NO: 57) or K108-L123 (SEQ ID NO: 67), in addition to 1 μg/ml of angiogenin or VEGF as the angiogenic agent, as indicated. Control wells received PBS. FIG. 6B-Results were assessed by imaging software, and quantified, and expressed relative to tube formation with angiogenin or VEGF alone (100%) Column 1=angiogenin, column 2=angiogenin+SEQ ID NO: 60, column 3=angiogenin+SEQ ID NO: 57, column 4=angiogenin+SEQ ID NO: 60, Column 5=VEGF, column 6=VEGF+SEQ ID NO: 60, column 7=VEGF+SEQ ID NO: 57, column 8=VEGF+SEQ ID NO: 60. FIGS. 6C and 6D illustrate the inhibitory effect of truncated human T2 polypeptide trT2-49m (SEQ ID NO: 129) on angiogenin and VEGF induced HUVEC tube formation. […]
HUVEC (CC-2519)(fresh or commercially provided) are maintained in M199 rrrediurn supplemented with 20% FCS, 1% glutamine, 1% antibiotic-antimycotic solution, ECGF, and heparin, plated in a 96-well plate (14×10^3 cells/well) previously coated with growth factor-depleted Matrigel™ (BD Biosciences), in M199 medium containing 5% FCS and 0.005% ECGF. […] Plates are incubated (overnight), photographed and the extent of tube formation (angiogenesis) assessed.

“Also recorded” adds a separate entry of the source.

B1: SEQ ID NO: 84: truncated RNASET2 polypeptide representing amino acids 49-232 of full length, native RNASET2 (protein)
chain: EGCNRSWPFNLEEIKDLLPEMRAYWPDVIHSFPNRSRFWKHEWEKHGTCAAQVDALNSQKKYFGRSLELYRELDLNSVLLKLGIKPSINYYQVADFKDALARVYGVIPKIQCLPPSQDEEVQTIGQIELCLTKQDQQLQNCTEPGEQPSPKQEVWLANGAAESRGLRVCEDGPVFYPPPKKTKH
Take B1: the “actin binding on ELISA” value in assay [1] is on record as “effectively binds actin”. The “inhibition of angiogenesis (number of blood vessels around disk)” value in assay [2] was “effective in inhibiting angiogenesis”. Moreover, in the assay with actin [3], the “Ka × 10^3” value is on record as 1.71 ×10^3 1/Ms. Moreover, in the assay with actin [4], the “actin binding in solid-phase assay” value was “effective and concentration-dependent binding of actin”.

B2: SEQ ID NO: 129: truncated version of hRNASET2 (trT2-49) missing amino acids E120-V141, expressed in E. coli (protein)
chain: EGCNRSWPFNLEEIKDLLPEMRAYWPDVIHSFPNRSRFWKHEWEKHGTCAAQVDALNSQKKYFGRSLELYRADFKDALARVYGVIPKIQCLPPSQDEEVQTIGQIELCLTKQDQQLQNCTEPGEQPSPKQEVWLANGAAESRGLRVCEDGPVFYPPPKKTKH
In the case of B2, in the assay with actin [3], the “Ka × 10^3” value was 0.50 ×10^3 1/Ms. Further, the “actin binding in solid-phase assay” value with actin [4] was “bound actin in a concentration-dependent manner; also recorded: effective and concentration-dependent binding of actin”. In the assay on HUVEC (1 μg/ml VEGF), the “inhibition of VEGF-induced tube formation” value came to 35%. Moreover, in the assay on HUVEC (1 μg/ml angiogenin), the “inhibition of angiogenin-induced tube formation” value was 40%.
